Measured values reported in the domain aggregation screens of Martell et al. (2025).

assay: soluble fraction after stress (log2 fold change); higher = more stays soluble; pooled small domains, quantitative proteomics; conditions: stress: 50 degC
How it was run: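 Quantitative proteomics served as the high-throughput read-out for pooled custom libraries of small protein domains. Each was stressed at 50°C. Aggregation propensity is expressed as the base-two log fold change in soluble protein after stress. A higher value means a larger share of the protein remains in solution.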

Point of comparison: “HMANYYEILGVKHDATEAEIKAAYKQAAKSAHPDAGGSNEKMQEVNAAWEVLGNAQKRAEYDARMA”, “soluble fraction (log2)” value 0.0756. Against it:
- HMVPLGDLSKNERRAMELAATNGNVTTRALADDAQVTKRTASTTLRRLAKRGLLEWIGKGPSDPGQFYRIP — within 0.2 log units, -0.123
- HMGDSVLNDKLNTLAGLDEERFKWVLASLNPNNSYSTHSDKMSALMWLVSYFNDEADLKETVPPLPI — within 0.2 log units, -0.0724
- HMPATIEGIRLYLSSGLIKGVGEEMASRIVKAFGTDTIRVLDEEPERLLKVRGVGKKSLDRIRTSWAEH — lower, -0.386
- HMKHFNDEELDGFAGLKSDDYNEEQVELFRNIFEELHPDEIIEWTESLRRRGIEIPSSLKDEVVMMIN — within 0.2 log units, 0.173
- HMTVDAVALGRRVRHLRKQAGLTLDQLAERTGVSGSHLSLVENARREPRLSLVQRIAEVLGVPVEDL — lower, -1.17
- HMNMSVGAALRRRRNELGMTLRELADEAELTSGFLSQVENDRVSPSLKSLGRIAEVLRIPLFQLLS — lower, -1.29
- HMSFNSQENKSVLWQFLLENNFFIGLSDKKFNKVKDIFEKNIQSISIVNDSISNKNKILIQKMMEELELL — lower, -1.88
- HMVQPSAAVRAHPVGAFVEQRQGLSDDQILALQKKWNEGIYARIQGTRWFLFSKDTPAVTSLLLVPDLP — lower, -0.555
- HMRKTLSQEAYEKIKQNLEDGVYQGYINGRQVARDLDIGFTPVREAFLQLQSEGLIRKEDNVGYFV — within 0.2 log units, 0.139
- HMPSSFLVKVTADALNIRSGPGVANRITGTIKDKGTYTIVDTKDDWGKLKSGVGWIHLGYTKRLD — lower, -0.33
- HMNIIHNPSKNFIESDLNDLKEGMEIEHKKFGYGLIKSIDKTQNHQKAVVNFKLVGEKTLLLSFARLRIV — lower, -2.75
- HMPEVAHTIDMEAVNKHWDELPEREQRILVMRFYGNLTQTEIGERLGISQMHVSRLLARALSHLKSRLLD — lower, -3.37
- HMPEFKDMLKFFRMREHLSQSELAEKLGISASTVSMYEVGRRQPDFETEEKIADFFNTDLNTLRG — lower, -0.39
- HMDVNAQAGYDKLQSNQLDGARHDYEQALKTDPNNVDTLLALAAIAQRQGRSADADGYRQRAIDAD — within 0.2 log units, -0.124
- HMSNEVSYSDFVRSVESDEVNAVTLDGEQIRFVGNDGQTYSVIKPADAQITQLLIDNNVTVRAEQQ — within 0.2 log units, 0.0224
- HMVTTLLIINVAGKVKNPGVYQLPPGSRVVDALEAAGQQLKGVDISDINLARVLVDGEQILIGSN — lower, -1.86
- HMERLSNQVYAILKEMIADYRFNPGARINVEQIAKEVGASRTPVWEAVHRLVQEGLLENIPNRGVFML — lower, -1.41
- HMPLYKYYTSYQIEPGDTLTSIAQKYTINSDVSVQDYIDEVKKNNNLVSDKINSGSYLVVSYYSNEY — lower, -2.35
- HMTDAEQHEALLFKQVVDGLPQTLRDTFVLSRHAGMTYAEISAHTGTPIKTVESRMAKALELIAQRMR — lower, -0.67
- HMVELGMSQNEFIQKFGKPFNKEMAYTYDKHKRETLFYKEDLYRGSWFIVTTAFTFVDSKLVSQEIVREER — lower, -3.41
- HMHQAADFAGFITFNKDGVEQFSFGKYKNQTVVSVLEKDPGYYSWIQNADFPLYTKKILTAIRLAM — lower, -0.577
- HMSVHSAELKKLKAHLLGIIGRELETQPSTENREEMVRQILHQSYESLRLNLPMQLKEELFNEILAEVL — higher, 0.353
- HMLLQTRQRHEALAALGYFKGDVAAAWGPASEEALRAAQAAFGITVDGKWGPQTEDAIQGALQV — lower, -0.213
- HMDKFKDVGARIREARKVQKLSQADLAERLQISTSHMSDIENGKKNIGLDIFMRLTEALQVSADWLL — within 0.2 log units, -0.124
- HMSNLVEVPAVIGRMKEDAITMLISAGLEPAVTYDEYPLVKENLVADQSVAPGQKVEKGSFVTITVSRS — within 0.2 log units, -0.0475
- HMLENYEGFKQKILKLTGIDLSSYKERQMRRRIDSLIHRNNYDDYDEYFKALTQNSNLYDEFINYLTI — lower, -0.539
- HMADTPQAYIRQMVQEAGADGIMLSTITDRLRARFKDFKVRDLGYAQMRQYMASTGTYDLEKSGRNFRVHL — lower, -0.935
- HMNVDSLIGQTARVIVDINNNDSIGYALVGGQEWTARAENDNDIIPKDTLVEIVGVSGVKLIVRRKE — within 0.2 log units, -0.044
- HMLLNLSPIETQVLRLIQQDKKVTYESIGKELTIGQTKVYKVLGHLKELNVIERIGGRTYGHWHILL — lower, -1.03
- HMYVTGETIRHLRTQRRMTQEQLAETLGVTGKAVSKWETGRGFPDMSLLEPLARALRISVPELLSGE — lower, -0.614
- HMYMLYQQLADSLRDKIYEGTYTFGDKIPSERTLAATFGISHLTVRKALAILEEEGLLDRRQGNGTFVRV — lower, -1.02
- HMYSRQRDLILKALRENVVHPTADFIYTVLKEKEPNLSLATVYRNLNLLANEGIIRKIEGLDGVAHFDH — lower, -1.46
- HMIEGETPEQTMERVSKDPEIVQILQDPVMQGILAQARENPAALQDHMKNPEVYKKINMLIAAGVIRT — within 0.2 log units, 0.0669
- HMDTITDSYTLEKGKLRAKVMEYELPESKKKEYSATFEYRGVYYHMIGIIEKADFEEILKNLHFP — lower, -0.165
- HMQESTILPAQKSAISSLATSAGFSSENLKRYLLQNYGVDLKDLTRSQGAEVIKAFQSGNVSKP — within 0.2 log units, 0.0882
- HMIILYTDEQQRIIDRLNEFIGEQPSQNEAAKLLGISAPILTNLRKGTYTGTVDKFMNKLAAYFNIKADLG — lower, -1.05
- HMKIVPEPGTVLIREYQEERHEVTVTLDGAFDYKGTLYSSLSEIARLITGTRWSGPVFFGLRS — lower, -0.4
- HMNINLNVGKRLKSIRQNKELSLDEVSNLTNVSKPALAQIERGASSPTINTLWKISKGLKVPLSYFLQE — within 0.2 log units, -0.0405
- HMEILVSTRRHEIASLLSRKKRVSFFELFPEKTKEYVVATFLAILEMAKAREVNITQEDTFDEIIVEEA — lower, -0.43
- HMNTIFSVNGPVVKVKDTKDFSMMEMVYVGEKKLIGEVIGITESFTTIQVYEVTTGLKVGEPVYTTGAPM — lower, -0.38
- HMLVIMKTGASEEEIGRVIERIEGEGLSAHVSRGTERTVIGVIGQGVDVHRIAGVLGGMSGVESLVPIS — within 0.2 log units, 0.0405
- HMGTNTTGWIKIADDWKYIDSNGEYTVNDWRQSADGGWYYLGYNGNMLKNQTTPDGYYVDAEGLWDGMSPA — lower, -0.709
- HMKPVPPLNGTSLRDLALGYAGRYATTAARLKHYLQRKLRERGWGGEDEPDLDGLVARLVELGYVNDEVF — within 0.2 log units, -0.102
- HMGVGIEALAVEVDRIRQVLTGGGALSDIQLFSQLKALGEVKTALSSMTDPRARELEKRVAQLLEASLRT — within 0.2 log units, -0.0594
- HMKVNQFEVEGNQRYSTEEIAKASGVSKGDNLFLVNKTETARKLLDELAYVRSVNIKRKLPDTLVITVAE — higher, 0.399
- HMGYDVAEVKFRLIKLLRDSKIGISGVEISERLGINRVTMTKYLNIFSAEGVIGEKNIGNVNLWFVYEGIE — lower, -1.68
- HMLKDGPIGAYADSVIRDIIEKMERFSKEHINVDMLKIHEKIMLIDEPIIRMALLDEFHRVSHDN — lower, -2.09
- HMLKLSGEESQQLALRLREELARRRITRQGLADAAKISISTLEQVLAGRRTFTLATIVRLEEGLGIKLL — lower, -1.89
- HMYDRIKLLKLREKRGLTQYELAEKAGISVVTLNKIETSDMAKPFASTLKKIALALGVGIEELS — within 0.2 log units, -0.121
- HMLNENNHGEWSIRMSNGLVVRLGRDELNRSLRRSIMAYAGLAPNYRSSIEYIDARYLGGVALKTF — within 0.2 log units, -0.091
- HMRDYDFGNLLYKLRIESGYTQKDIADMLGVTDKAVSKWENGIAKPTTNNIKLLSTIYNVSVEELLNG — lower, -0.254
- HMYTEIDDVKDLLSKIPSVNKLTTADRGMVQAARNAYDALDEDQKLYITIADVEKFNAAVEWMEEH — within 0.2 log units, 0.0056
- HMKEEDLPREYTDILGNSVHERLNIMIHDIIEHSQDKPEVAMSPEREEAMHGLRRWMFDHVYH — lower, -0.202
- HMNLTSNDAYSRILNAIITSELRPGDTVTEIQLAQKFGFGRTPVREAIMRLENEGFIVSAERKKRVYIL — lower, -2
- HMVEGTVKWFNDEKGFGFIEQEGGKDVFVHFSAINGSGRRTLHEGQRVTMEVTQGQKGPQAENVNP — within 0.2 log units, 0.181
- HMAVLFFVKRGERILGPTRLADLFQHAASGRLRANDLVGESPKGPWLPARQLDELEDAWASSRDATEAAAA — within 0.2 log units, 0.251
- HMAAHHIILEEREQLSVSGVEEVESFDENTIVMLTNRGTLIVRGEELHIEKLSLDGGDLRVEGSIDSLTYE — lower, -0.274
- HMATPTEHQLQAQARAVVEKAERLLDRASADDREDIINLIEKITDALAAEDFTAVKAPLAELSDILFYLE — lower, -0.418
- HMPQIDLYPFEVRIEQDNNAAEYAVRFLDVPNIIGSGASIDEAIVEARGNLKEYLDYLIDTNRDIPLPS — lower, -0.412
- HMPLEKGVVILDVTPSSAKVAVDGTSVETTYPLRLSAGLHQLSAEADGYDSITEYFKVETEKTTVTLDLSK — within 0.2 log units, 0.105
- HMRPNREKDMADLEKLAPFLLQMLTNYAQMTGDEKPLNAFITRFGYAAQIRDIQDFFMGPWHPA — higher, ≥ 0.62
- HMAPGIGDSKYFSHIYEMKHIDTIIDNDKGDRLIEHFEIQDTPFIFTKHWTSAFGFSKRQQEIITDYLSYF — within 0.2 log units, 0.0839
- HMTDFLKTRIDTLGLSTRTLNALSEANVRTIGGIARKKQEDLLEIDGIGEKGIQEIKKMLGEYGITL — lower, -0.126
- HMKTFQSYQTTSMSNVNLRKRANGTSTILKRIKVGDTVTVVGKSGNYYQIQFDGKEGYALIKYIDGTDSGA — lower, -0.247
- HMGNLIIFYDAQTGSAPLLKAVKTSGATLVYEYKNLHGIAIRPSSKTSIEDAIAYFKKVNGVLSVE — lower, -1.84
- HMSEITQTLSMIGKEVTLEIPDEKDKTKTTEVKGIVTEASFKDGTGKVKVNGEYYSIAYITSIRDT — higher, 0.335
- HMKESRFDYDAVLLYSDKDSITEVKDAVQHLTKEFGSVFTTKKIPEKATFGKLFRIEKGEVNIIEDN — within 0.2 log units, -0.0248
- HMESFGVAIKRLREAQGWTRADFLRQLGKTGYYMHATTLKRIEEGEQIAKVHEAVIISRLFGVTVEEMG — lower, -2.94
- HMSDAIQLEQKIGLEAIEWYLALSEQTDDKLLYQQWQSWLAADPQHQLAWSRIEQVNHGLNTL — lower, -0.706
- HMRGAIKMAEEQMAGHKKIGSISGTAPTQGELEKKFAMAAAQMGARYYVITGLSNNNYAFGNADIY — lower, -0.316
- HMGEVISRSYPLLKTKAKPAEVSEALQKLIKAPATVTFDEKNEVFHINATRLQHTWAEGYFKGLHGK — within 0.2 log units, 0.0333
- HMSLTGFYNLTFKQADRLSVIDEAGEEVYKQAIAMGSTTKTIDLSALNAGVYFIRIYNGEVIAQEKIVLN — lower, -1.25
- HMNELVEATITTQTGRLDKVLTTIFPQYSRSQIQQLLEQGNILVNETLQKGKYKVKAGDKISLTEPAIKE — within 0.2 log units, 0.111
- HMDAPKTGSLVVSKAVNYGSWSGFTFRLHGTSDKGNSVDVTATTGSDGKAYFKDIEIGTYTLEEVN — lower, -0.387
